Results on 41 sequences are retold here after the nanobody polyreactivity screen of Harvey et al. (2022).

A short description of this series: yeast display, Sf9 membrane polyspecificity reagent, FACS + sequencing; frameworks hold sequencing errors. In outline: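 Nanobodies came from a synthetic yeast display library in Saccharomyces cerevisiae BJ5465, induced with galactose for 36–48 hours and stained for 1 hour at 4 °C with 10% biotinylated, detergent-solubilized Sf9 membrane reagent. Cells were enriched on streptavidin microbeads and then FACS-sorted, with low and high (top ~1%) gates set on anti-HA fluorescence for expression and streptavidin fluorescence for reagent binding. Each polyreactivity label reflects the gate a clone came from. Genes were amplified by colony PCR, sequenced by MiSeq 2 × 250 and filtered by CDR length.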
In the case of “QVHLVESGGGLVQAGGSLRLSCAASGITFWGNAMGWYRHAPGKEREFVARINWSGGRTYYAESVKGRFTISRDNAKITVYLQMKSLKPEDTAVYYCAATSLIYGYRTYVYWGQGTQVTVSS”, the “polyreactivity (PSR sort gate)” value is “high polyreactivity”.
Under “QVHLVESGGGLVQAGGSLRLSCAASGITFYGNTMGWYRQTPGKERELVARISSGGSTNYAESVKGRFTISRVNAKNTVYLQMNSLKPEDTAVSYCAVKQYGFIWSGYGYDYWGQGSQVTVSS” stands “high polyreactivity”; under “QVHLVESGGGLVQAGGSLRLSCAASGITFYRFVLGGYRQAPGKEWELDAAISRTGGYTYYADSVKGRFTLSRDNAKNTVYLQMNSLKPVDTAVYYCAAATSTGIYDYWGQGTQVTGSS”, “high polyreactivity”; under “QVHLVESGGGLVQAGGSLRLSCAASGITIYVYAMGWYRQAPGKEREFVAAINGRGGSPYYADSVKGRFTISRDNAKNTVYLQMNSLKPEDTAVFYCAAESLAIYYKYPPYDYWGQGSQVTVSS”, “high polyreactivity”.
Under “QVHLVESGGGLVQAGGSLRLSCAASGLIFFKYAMGWYRQETGKESELVAANSSSGGRTSYADSVKGRFTISRDNAKNTVYLQMNSEKPEDTAVYYCNVKPSASYIRYNYRYYYWGQGTHVTVSS” stands “high polyreactivity”; under “QVHLVESGGGLVQAGGSLRLSCAASGLIFGKNAMGWYRQPPGKERELVAAISSGESTYADSVKWRFTISRDNAKNTVYLQMNSLKPEDTAVYYCNAEVLRESYDRHPTTDYYWGQGTQVTVSS”, “low polyreactivity”; under “QVHLVESGGGLVQAGGSLRLSCAASGLIFVFYAMGWYRQAPGKERELVAAISRSGTSTYADSVKGRFTISRDNAKNTVYLQMNSLKPEDTAVYYCNAYRYYSPDGYWGQGTHVTVSS”, “low polyreactivity”.
To “QVHLVESGGGLVQAGGSLRLSCAASGLILPYYAMGWYRQARGKERELVAAISRTGGRTSYADSVKGRFTISRDNAKNTVYLQMNSLKPEDTAVYYCAAVGQSGGRRYDYWGQGTQVTVSS” belongs “high polyreactivity”; to “QVHLVESGGGLVQAGGSLRLSCAASGLTFPSNAMGWYRQAPGKERELVAAISKRGGRTYYADSVKGRFTISRDNAKNSVYLQMNSLKPEDTAVYYFATPYAYPGTVQYAGYNYWGQGTQVTVSS”, “high polyreactivity”.
As to “QVHLVESGGGLVQAGGSLRLSCAASGLTFYSNAMGWYRQAPGKERELVARISTGGSTYADSVKGRFTISRDNAKNTVYLQMNSLKPEDTAVYYCAKLPPRGIDDEYWGQGNQVTVSS”, the “polyreactivity (PSR sort gate)” value is “low polyreactivity”.
Under “QVHLVESGGGLVQAGGSLRLSCAASGRIFAYYTMGWYRQAPGKERELVAAITSRGGSTYYADSVKGRFTISRDNAKKTVYLQMNSLKPEDTAVYYCADMRPSNVDYWGQGTQVTVSS” stands “high polyreactivity”.
To “QVHLVESGGGLVQAGGSLRLSCAASGRIFKDNAMGWYRQAPGKERELVATIDSGGDTNYADSVKGRFTISRDNAKNTVYLQMNSLKPEDTAVYYCNTEGFLSAVYAFGYWGQGTQVTVSS” belongs “low polyreactivity”; to “QVHLVESGGGLVQAGGSLRLSCAASGRIFNQYGMGWSRQAPGKERELVAAIRSGDSTNYADSVKGRFTISRDNAKNTVYLQMNSLKPEDTAVYYCARDRPGDYAGYDYWGQGTQVTVSS”, “low polyreactivity”; to “QVHLVESGGGLVQAGGSLRLSCAASGRIFRFYAMGWYRQAPGKERELVADISRRGGSTYYADSVKGRFTISRDNAKNTVYLQMNSLKPEDTAVYYCNARWYRTGSTYHEDYWGQGTQVTVSS”, “high polyreactivity”.
To “QVHLVESGGGLVQAGGSLRLSCAASGRIFSRNAMGRYRQAPGKERELVAAISSDGNTNYADSVKGFTISRDNAKNTVYLQMNSLKPESTAVYYCAARFGYTAYGYWGQGTQVTVSS” belongs “low polyreactivity”; to “QVHLVESGGGLVQAGGSLRLSCAASGRIFYYNAMGWYRQAPGKERELVAAISSAGSTYYADSVKGRFTLSRDNAKNTVYLQMNSLKPEDTAVYYCNAGKHERMDWGQGTQVTVSS”, “high polyreactivity”; to “QVHLVESGGGLVQAGGSLRLSCAASGRIFYYYAMGWYRQAPGKEREFVAAIRISGGSTNYADSVKGRFTISRDNAKNTVYLQMNSLKPEDTAVYYCAARSKYSGIRRAYDYWGQGTQVTVSS”, “high polyreactivity”.
As for “QVHLVESGGGLVQAGGSLRLSCAASGRISFNAMGWYRQAHAKERELVAAISRRGGSTYYADSVKGRFTISRDNAKNTVSLQMNSLKPEDTAVYYCAPDIIRPVTVDYWGQGTQVTVSS”, the “polyreactivity (PSR sort gate)” value is “high polyreactivity”.
To “QVHLVESGGGLVQAGGSLRLSCAASGRIYRVNGMGWYRQAPGTERELVAAIRRSGGSTYYADSVKGRFTISRDIAKNTVYLQMNSLKPEDTAVYYCAARVRQSSYTRYDSWGQGTQVTVSS” belongs “high polyreactivity”; to “QVHLVESGGGLVQAGGSLRLSCAASGRPFYIYAMGWYRPAPGKERELVAAITWSGGTTYYADSVKGRFTISRDTANNTVYLQMNSQKPQDTAVYYCNASFRRGFDYWGQGTQVTVSS”, “low polyreactivity”.
To “QVHLVESGGGLVQAGGSLRLSCAASGRTFFRYAMGWYTQAPGKERELVAAITRSGGSTYYADSVKGRFTISRDNAKNTVYLEMNSLKPEDTAVYYCAAPREAYSRGYDSWGQGTQVTVSS” belongs “high polyreactivity”; to “QVHLVESGGGLVQAGGSLRLSCAASGRTFNRTAMGSYRQAPGKERELVAAMSWRGDSTSYADSVKGRFTISRDNAKNTVYLQMNSLKPADTAVYYCATAHDYAFYRYWYVPSEYYYWGQGTQVTVSW”, “low polyreactivity”.
Under “QVHLVESGGGLVQAGGSLRLSCAASGRTFPGYAMGWYRQAPGKERELVATITGNAGSTYYADSVKGRFTISRDNAKNTVYLQMNSLKPEDTAVYYCAAGRRRPYVRAYRGTDYWGQGTQVTVSS” stands “low polyreactivity”; under “QVHLVESGGGLVQAGGSLRLSCAASGRTFSWNALGWYRQAPGKQRELVAVISRGDSTNYADSVKGRFTISRDNEKNTVYLQMNSLKPVDNAVYYCAADGYPPGYGYWGQGTQVTVSS”, “low polyreactivity”; under “QVHLVESGGGLVQAGGSLRLSCAASGRTFVFNAMGWYRQAPGKEREFVAAITWGGGSTYYADSVKGRFTISRDNAKNTVYLQMNSLKPEDTADYYCARPTTYGYYYWGQGTQVTVSS”, “high polyreactivity”.
Consider “QVHLVESGGGLVQAGGSLRLSCAASGRTIGVNAMGWYRQPHGTERELVAAITKDSGATNYADSVKGLFTISRDNAKITVYFQMNSLKADDTAVYYCAARVWVRGYYWGQGTQVTVSS”, for which the “polyreactivity (PSR sort gate)” value is given as “low polyreactivity”.
Under “QVHLVESGGGLVQAGGSLRLSCAASGRTLAPNAMGWYRQAPGKERELVATITRGGTTNYADSVKGRFTISRDNAKNTVYLQMNSLKPEDTAVYYCAAGYPSWYYGYPYDSWGQGTQVTVSS” stands “low polyreactivity”.
To “QVHLVESGGGLVQAGGSLRLSCAASGRTVEGNAMGWYIQAPGKERELVAAITSGGRTNYADSVKGRFTISRDNAKNTVYLQMNSLKPVDTAVYYCAVETRDRSTDFPGQAYDYWGQGTQLTVSS” belongs “low polyreactivity”; to “QVHLVESGGGLVQAGGSLRLSCAASGSIFFGNAMGWYRQAPGKERQLVAAISTTGGSTYYADSVKGRFTISRDNAKNTVYLQMNSLKPEDTAVFFCNSDRATWWEQWWYDYWGQGTQVTVSS”, “low polyreactivity”; to “QVHLVESGGGLVQAGGSLRLSCAASGSIFGPYMGWYRQAPGKERELVASVVSTYYADSVKGRFTISRDNAKNTVYLQMNSLKPEYTAVYYCNTQDTKNKSSVFVPSDYWGQGTQVTVSS”, “low polyreactivity”.
To “QVHLVESGGGLVQAGGSLRLSCAASGSIFNVNAMGWYRQAPGKERELVAAISSGGDTYYADSVKGRFTISRDNAKNTVYLQMNCLKPEDTAVYYCAKQSYTLYTLLYDYWGQGTQVTVSS” belongs “low polyreactivity”; to “QVHLVESGGGLVQAGGSLRLSCAASGSIFSWNAMGWYRQAPGKERELVAAISKRGTSTYYADSVKGRFTISRDNAKNTVYLQMNSLKPEDTAVYYCAARAQSYPYLSFDYWGQGTQVTVSS”, “high polyreactivity”; to “QVHLVESGGGLVQAGGSLRLSCAASGSIFVYNSMGWYRQAPGKEMELVAGITFIGGSTYYADSVKGRFTISRDNAKNTVYLQKNSLKPEDTAVYYCNADVAPGIFYGYDSWGQGTQVTVSS”, “low polyreactivity”.
For the sequence “QVHLVESGGGLVQAGGSLRLSCAASGSIFWWYAMGWYRQAPGKERELVAAIRWSGTTAFYADSVKGRFTISRDYAKNTVYLQMNSLKPEDTAVYYCNAEGGIWGGTTGYDYWGQGTQVTVSS”, the “polyreactivity (PSR sort gate)” value is recorded as “low polyreactivity”.
For the sequence “QVHLVESGGGLVQAGGSLRLSCAASGSIFYTNAMGWYSQAPGKERELVAAISYSGGRTYYADSVKGRFTISRDNAKNTVYIQMNSLKPEDTAVFYCNTVLRGGSTEAFDYWGQGTKVTVSS”, the “polyreactivity (PSR sort gate)” value is listed as “high polyreactivity”.
Regarding “QVHLVESGGGLVQAGGSLRLSCAASGSIFYYNAMGSYRHAPGKERELVAAINWSGDRTYYADSVKGRFTISRDNAKNTVYLQMNSLKPEYTAVYYCAATAWPGRYWRQEVDYWGQGTQVTVSS”, the “polyreactivity (PSR sort gate)” value was “high polyreactivity”.
Under “QVHLVESGGGLVQAGGSLRLSCAASGSILGSNAMGWYRQAPGKERELVAAISSGGSTDYADSVKVRFTISRDNAKNTVYLQMYCLKPEDTAVYYCAAGFIYHYGLYKIYDYYYWGQGTQVTVSS” stands “low polyreactivity”.
To “QVHLVESGGGLVQAGGSLRLSCAASGSILSDNTLGWYRQAPGKERELVAAISRSGGTTYYADSVKGRFTISRDNAKNTVYLQMNSLKPEDTAVYYCAARYYYRYNYWGQGTQVTVSS” belongs “high polyreactivity”.
On to “QVHLVESGGGLVQAGGSLRLSCAASGSTFAANAMGWYRQAPGKERELVAAITSSGGSTYYADSVKGRFTISRDNAKNTVYLQMNSLKPEDTAVYYCKKDIERYFRIYDSWGQGTQVTVSS”, for which the “polyreactivity (PSR sort gate)” value is given as “low polyreactivity”.
With “QVHLVESGGGLVQAGGSLRLSCAASGSTFDPNAMGWYTQAPGKERELVAAISYTGGRTYYADSVKGRFTISRDKAKNTVYLQMNSLKPEATAVYYCAVLVVGSPTQDEPYVSGVEHDYWGQGTQVTVSS”, the “polyreactivity (PSR sort gate)” value was “low polyreactivity”.
Take “QVHLVESGGGLVQAGGSLRLSCAASGSTFFIYTMGWYRQAPGKEREFVAAISWTGGRTYYADSVKGRFTISRDNAKNTVFLQMNSLKPEDTAVYYCAARYKYYSYDYWGQGTQVTVSS”: the “polyreactivity (PSR sort gate)” value was “high polyreactivity”.
